Measurements published in patent publication US20140302123A1.

How the values were obtained:
[1] = molecular target: T1, PTPN4-PDZ (residues G499-N604) (human), P29074; experiment: NMR titration (rounded value in the text)
T1 chain: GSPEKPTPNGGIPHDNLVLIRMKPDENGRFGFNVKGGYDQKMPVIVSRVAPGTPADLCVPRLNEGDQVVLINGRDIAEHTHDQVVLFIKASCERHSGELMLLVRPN

[2] = molecular target: T1, PTPN4-PDZ (residues G499-N604) (human), …; experiment: NMR titration, 15N-labeled PTPN4-PDZ with unlabeled peptide

SWESHKSGGETRL (modifications not checked) [Cyto13-att]
Kd [1]: 160 µM
Kd [2]: 157 µM
